Experimental data taken from paper PMC11480844 (2024).

B1: H2-Kb / Ed23 (parent complex)
chain 1: QQKVQQSPESLTVSEGAMASLNCTFSDRSSDNFRWYRQHSGKGLEVLVSIFSDGEKEEGSFTAHLNRASLHVFLHIREPQPSDSALYLCAVRGFWTNKVVFGTGTRLQVLP
chain 2: AQTIHQWPVAEIKAVGSPLSLGCTIKGKSSPNLYWYWQATGGTLQQLFYSITVGQVESVVQLNLSASRPKDDQFILSTEKLLLSHSGFYLCAWSPRQSSYEQYFGPGTRLTVL
chain 3: not shown
chain 4: IQKTPQIQVYSRHPPENGKPNILNCYVTQFHPPHIEIQMLKNGKKIPKVEMSDMSFSKDWSFYILAHTEFTPTETDTYACRVKHDSMAEPKTVYWDRDM
chain 5: SIINFEKL

Variants of: B1
Assay: % of reporter cells activated (NFAT-GFP), raw; note: test concentration or dose not given here

Question: How did the ratio to parent turn out when chain 5 L8R was run?
Answer: 1.26

Question: With chain 5 F5D as the variant, how does the ratio to parent read?
Answer: 0.997

Question: For chain 5 I2R, which ratio to parent is on record?
Answer: 1.72

Question: How did the ratio to parent turn out when chain 5 I3W was run?
Answer: 0.975

Question: With chain 5 E6F as the variant, how does the ratio to parent read?
Answer: 0.147

Question: chain 5 S1V was tested. Which ratio to parent did it give?
Answer: 1.12

Question: chain 5 F5E was tested. Which ratio to parent did it give?
Answer: 0.937

Question: chain 5 K7A was tested. Which ratio to parent did it give?
Answer: 0.598

Question: With chain 5 I2L as the variant, how does the ratio to parent read?
Answer: 1.49

Question: For chain 5 F5V, which ratio to parent is on record?
Answer: 1.33

Question: For chain 5 K7S, which ratio to parent is on record?
Answer: 1

Question: Which ratio to parent does the source give for chain 5 E6S here?
Answer: 0.0871

Question: With chain 5 K7R as the variant, how does the ratio to parent read?
Answer: 1.42

Question: chain 5 N4E was tested. Which ratio to parent did it give?
Answer: 0.415

Question: How did the ratio to parent turn out when chain 5 F5W was run?
Answer: 1.08

Question: For chain 5 I2M, which ratio to parent is on record?
Answer: 1.46

Question: For chain 5 L8Q, which ratio to parent is on record?
Answer: 1.21

Question: With chain 5 I3S as the variant, how does the ratio to parent read?
Answer: 1.23

Question: chain 5 F5T was tested. Which ratio to parent did it give?
Answer: 1.33

Question: For chain 5 K7C, which ratio to parent is on record?
Answer: 0.919

Question: chain 5 N4V was tested. Which ratio to parent did it give?
Answer: 0.207

Question: Which ratio to parent does the source give for chain 5 K7G here?
Answer: 1.18

Question: With chain 5 I2Y as the variant, how does the ratio to parent read?
Answer: 0.96

Question: Which ratio to parent does the source give for chain 5 S1A here?
Answer: 1.26

Question: How did the ratio to parent turn out when chain 5 F5N was run?
Answer: 1.28

Question: With chain 5 I2P as the variant, how does the ratio to parent read?
Answer: 1.38

Question: How did the ratio to parent turn out when chain 5 E6L was run?
Answer: 0.0247

Question: How did the ratio to parent turn out when chain 5 L8Y was run?
Answer: 1.24

Question: For chain 5 N4I, which ratio to parent is on record?
Answer: 0.277

Question: How did the ratio to parent turn out when chain 5 I2K was run?
Answer: 1.54

Question: chain 5 I3D was tested. Which ratio to parent did it give?
Answer: 0.768

Question: chain 5 F5Y was tested. Which ratio to parent did it give?
Answer: 1.32

Question: Which ratio to parent does the source give for chain 5 I2D here?
Answer: 1.31

Question: With chain 5 S1C as the variant, how does the ratio to parent read?
Answer: 0.722

Question: Which ratio to parent does the source give for chain 5 F5G here?
Answer: 0.894

Question: chain 5 F5M was tested. Which ratio to parent did it give?
Answer: 1.15

Question: Which ratio to parent does the source give for chain 5 I2Q here?
Answer: 1.39

Question: How did the ratio to parent turn out when chain 5 I2F was run?
Answer: 1.21

Question: For chain 5 I2S, which ratio to parent is on record?
Answer: 1.12

Question: For chain 5 N4A, which ratio to parent is on record?
Answer: 0.18

Question: With chain 5 L8N as the variant, how does the ratio to parent read?
Answer: 1.05

Question: For chain 5 F5A, which ratio to parent is on record?
Answer: 1.36

Question: Which ratio to parent does the source give for chain 5 L8C here?
Answer: 1.06

Question: How did the ratio to parent turn out when chain 5 I2A was run?
Answer: 1.3

Question: Which ratio to parent does the source give for chain 5 K7T here?
Answer: 0.145

Question: Which ratio to parent does the source give for chain 5 E6G here?
Answer: 1.28

Question: How did the ratio to parent turn out when chain 5 I3L was run?
Answer: 1.4

Question: With chain 5 E6R as the variant, how does the ratio to parent read?
Answer: 0.316

Question: chain 5 N4T was tested. Which ratio to parent did it give?
Answer: 0.342

Question: chain 5 K7P was tested. Which ratio to parent did it give?
Answer: 0.798

Question: For chain 5 E6D, which ratio to parent is on record?
Answer: 0.828

Question: With chain 5 I3R as the variant, how does the ratio to parent read?
Answer: 0.636

Question: With chain 5 E6Y as the variant, how does the ratio to parent read?
Answer: 0.588

Question: For chain 5 E6M, which ratio to parent is on record?
Answer: 0.486

Question: chain 5 E6W was tested. Which ratio to parent did it give?
Answer: 0.0503

Question: chain 5 F5R was tested. Which ratio to parent did it give?
Answer: 1.28

Question: Which ratio to parent does the source give for chain 5 N4F here?
Answer: 0.586

Question: For chain 5 E6P, which ratio to parent is on record?
Answer: 0.0439

Question: Which ratio to parent does the source give for chain 5 S1H here?
Answer: 0.523

Question: Which ratio to parent does the source give for chain 5 F5P here?
Answer: 0.864

Question: chain 5 L8I was tested. Which ratio to parent did it give?
Answer: 1.15

Question: How did the ratio to parent turn out when chain 5 S1R was run?
Answer: 1.01

Question: For chain 5 F5C, which ratio to parent is on record?
Answer: 1.3

Question: For chain 5 N4Y, which ratio to parent is on record?
Answer: 0.813

Question: How did the ratio to parent turn out when chain 5 F5K was run?
Answer: 1.19

Question: Which ratio to parent does the source give for chain 5 F5S here?
Answer: 1.19

Question: With chain 5 E6V as the variant, how does the ratio to parent read?
Answer: 0.0859

Question: With chain 5 S1T as the variant, how does the ratio to parent read?
Answer: 1.64

Question: For chain 5 I3Q, which ratio to parent is on record?
Answer: 1.22

Question: For chain 5 E6Q, which ratio to parent is on record?
Answer: 0.604

Question: For chain 5 I3G, which ratio to parent is on record?
Answer: 1.04

Question: Which ratio to parent does the source give for chain 5 K7L here?
Answer: 0.477

Question: Which ratio to parent does the source give for chain 5 E6I here?
Answer: 0.0187

Question: How did the ratio to parent turn out when chain 5 N4K was run?
Answer: 0.869

Question: chain 5 L8F was tested. Which ratio to parent did it give?
Answer: 1.13

Question: For chain 5 S1Q, which ratio to parent is on record?
Answer: 1.61

Question: chain 5 L8T was tested. Which ratio to parent did it give?
Answer: 1.02

Question: Which ratio to parent does the source give for chain 5 K7I here?
Answer: 0.142

Question: How did the ratio to parent turn out when chain 5 F5L was run?
Answer: 1.17

Question: With chain 5 E6C as the variant, how does the ratio to parent read?
Answer: 0.0131

Question: How did the ratio to parent turn out when chain 5 S1W was run?
Answer: 0.515

Question: For chain 5 I3M, which ratio to parent is on record?
Answer: 1.24

Question: For chain 5 S1E, which ratio to parent is on record?
Answer: 1.27

Question: How did the ratio to parent turn out when chain 5 N4G was run?
Answer: 0.451

Question: Which ratio to parent does the source give for chain 5 L8A here?
Answer: 0.692

Question: How did the ratio to parent turn out when chain 5 I3T was run?
Answer: 1.22

Question: chain 5 I3F was tested. Which ratio to parent did it give?
Answer: 0.433

Question: With chain 5 L8M as the variant, how does the ratio to parent read?
Answer: 0.785

Question: chain 5 N4C was tested. Which ratio to parent did it give?
Answer: 0.108

Question: With chain 5 L8S as the variant, how does the ratio to parent read?
Answer: 0.828

Question: For chain 5 N4P, which ratio to parent is on record?
Answer: 0.71

Question: With chain 5 L8H as the variant, how does the ratio to parent read?
Answer: 1.25

Question: chain 5 N4L was tested. Which ratio to parent did it give?
Answer: 0.631

Question: Which ratio to parent does the source give for chain 5 K7Y here?
Answer: 0.654

Question: How did the ratio to parent turn out when chain 5 I3N was run?
Answer: 1.38

Question: How did the ratio to parent turn out when chain 5 I3E was run?
Answer: 1.21

Question: Which ratio to parent does the source give for chain 5 N4Q here?
Answer: 0.0702

Question: How did the ratio to parent turn out when chain 5 L8D was run?
Answer: 0.909

Question: With chain 5 S1M as the variant, how does the ratio to parent read?
Answer: 0.348

Question: How did the ratio to parent turn out when chain 5 S1L was run?
Answer: 0.454

Question: chain 5 L8E was tested. Which ratio to parent did it give?
Answer: 0.833

Question: chain 5 K7Q was tested. Which ratio to parent did it give?
Answer: 0.132

Question: chain 5 K7E was tested. Which ratio to parent did it give?
Answer: 0.0934

Question: How did the ratio to parent turn out when chain 5 I2T was run?
Answer: 1.47

Question: chain 5 I3P was tested. Which ratio to parent did it give?
Answer: 1.29

Question: chain 5 K7D was tested. Which ratio to parent did it give?
Answer: 0.155

Question: For chain 5 I3H, which ratio to parent is on record?
Answer: 1.55

Question: With chain 5 I3C as the variant, how does the ratio to parent read?
Answer: 1.2

Question: Which ratio to parent does the source give for chain 5 F5Q here?
Answer: 1.41
